The supplement of paper PMC10567573

B1: TRIM14 (parent)
chain: REQADSCREQLDIMNDLSNRVWSI

Variants of: B1
Test: protein stability index of a GFP-peptide fusion (GPS, HEK-293T) (PSI 1-6); higher = more stable
Settings: c terminus: a fixed tail appended
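Further: lentivirally expressed fusions sorted by FACS into six bins by GFP to DsRed ratio, PSI derived from sequencing read proportions per bin multiplied by bin number.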

Variant | protein stability index
REQADSCREQLDIMNVLSNRVWSI | 1.65
REQADSCREQLDILNDLSNRVWSI | 1.99
REQADSCREQLDIYNDLSNRVWSI | 1.72
REQADSCREQLDIKNDLSNRVWSI | 2.33
REQADSCREQLDIVNDLSNRVWSI | 2.26
REQADSCREQLDIRNDLSNRVWSI | 2.03
REQADSCREQLDICNDLSNRVWSI | 2.36
REQADSCREQLDIQNDLSNRVWSI | 2.79
REQADSCREQLDINNDLSNRVWSI | 2.98
REQADSCREQLDIGNDLSNRVWSI | 2.26
REQADSCREQLDIDNDLSNRVWSI | 3.01
REQADSCREQLDIHNDLSNRVWSI | 2.45
REQADSCREQLDITNDLSNRVWSI | 2.5
REQADSCREQLDIINDLSNRVWSI | 2.2
REQADSCREQLDIENDLSNRVWSI | 2.81
REQADSCREQLDIWNDLSNRVWSI | 1.78
REQADSCREQLDIPNDLSNRVWSI | 2.93
REQADSCREQLDIFNDLSNRVWSI | 1.76
REQADSCREQLDIANDLSNRVWSI | 2.07
REQADSCREQLDISNDLSNRVWSI | 2.81
REQADSCREQLDCMNDLSNRVWSI | 2.93
REQADSCREQLDQMNDLSNRVWSI | 2.8
REQADSCREQLDNMNDLSNRVWSI | 2.92
REQADSCREQLDLMNDLSNRVWSI | 1.72

Variant | protein stability index
REQADSCREQLDVMNDLSNRVWSI | 2.02
REQADSCREQLDYMNDLSNRVWSI | 2.04
REQADSCREQLDHMNDLSNRVWSI | 2.88
REQADSCREQLDGMNDLSNRVWSI | 2.69
REQADSCREQLDEMNDLSNRVWSI | 3.46
REQADSCREQLDKMNDLSNRVWSI | 2.19
REQADSCREQLDWMNDLSNRVWSI | 1.76
REQADSCREQLDPMNDLSNRVWSI | 2.87
REQADSCREQLDRMNDLSNRVWSI | 2.43
REQADSCREQLDSMNDLSNRVWSI | 2.51
REQADSCREQLDAMNDLSNRVWSI | 2.45
REQADSCREQLDMMNDLSNRVWSI | 2.63
REQADSCREQLDDMNDLSNRVWSI | 3.37
REQADSCREQLDFMNDLSNRVWSI | 1.9
REQADSCREQLDTMNDLSNRVWSI | 2.74
REQADSCREQLDIMNDLSNRVASI | 3.85
REQADSCREQLDIMNDLSNRVDSI | 4.56
REQADSCREQLDIMNDLSNRVHSI | 3.79
REQADSCREQLDIMNDLSNRVISI | 2.79
REQADSCREQLDIMNDLSNRVCSI | 3.77
REQADSCREQLDIMNDLSNRVFSI | 2.82
REQADSCREQLDIMNDLSNRVKSI | 3.98
REQADSCREQLDIMNDLSNRVESI | 4.84
REQADSCREQLDIMNDLSNRVGSI | 4.34

Variant | protein stability index
REQADSCREQLRIMNDLSNRVWSI | 2.06
REQADSCREQLQIMNDLSNRVWSI | 1.59
REQADSCREQLVIMNDLSNRVWSI | 1.9
REQADSCREQLPIMNDLSNRVWSI | 2.31
REQADSCREQLWIMNDLSNRVWSI | 2.21
REQADSCREQLTIMNDLSNRVWSI | 2.53
REQADSCREQLYIMNDLSNRVWSI | 1.96
REQADSCREQLSIMNDLSNRVWSI | 2.21
REQADSCREQLDIMNDLSPRVWSI | 2.95
REQADSCREQLDIMNDLSTRVWSI | 2.04
REQADSCREQLDIMNDLSLRVWSI | 2.08
REQADSCREQLDIMNDLSKRVWSI | 2.1
REQADSCREQLDIMNDLSWRVWSI | 2.12
REQADSCREQLDIMNDLSDRVWSI | 3.16
REQADSCREQLDIMNDLSIRVWSI | 1.98
REQADSCREQLDIMNDLSHRVWSI | 2.26
REQADSCREQLDIMNDLSSRVWSI | 3.17
REQADSCREQLDIMNDLSCRVWSI | 1.58
REQADSCREQLDIMNDLSQRVWSI | 2.94
REQADSCREQLDIMNDLSMRVWSI | 2.53
REQADSCREQLDIMNDLSARVWSI | 2.91
REQADSCREQLDIMNDLSGRVWSI | 2.61
REQADSCREQLDIMNDLSYRVWSI | 2.08
REQADSCREQLDIMNDLSVRVWSI | 2.39

Variant | protein stability index
REQADSCREQLDIMNDLSRRVWSI | 2.3
REQADSCREQLDIMNDLSERVWSI | 2.98
REQADSCREQLDIMNDLSFRVWSI | 1.54
REQADSCREQLDIMNDLSNNVWSI | 2.91
REQADSCREQLDIMNDLSNDVWSI | 3.31
REQADSCREQLDIMNDLSNHVWSI | 2.73
REQADSCREQLDIMNDLSNVVWSI | 2.4
REQADSCREQLDIMNDLSNGVWSI | 2.77
REQADSCREQLDIMNDLSNAVWSI | 2.8
REQADSCREQLDIMNDLSNEVWSI | 3.04
REQADSCREQLDIMNDLSNMVWSI | 2.24
REQADSCREQLDIMNDLSNWVWSI | 1.64
REQADSCREQLDIMNDLSNPVWSI | 2.48
REQADSCREQLDIMNDLSNCVWSI | 1.99
REQADSCREQLDIMNDLSNLVWSI | 1.29
REQADSCREQLDIMNDLSNYVWSI | 2.26
REQADSCREQLDIMNDLSNTVWSI | 2.19
REQADSCREQLDIMNDLSNQVWSI | 1.79
REQADSCREQLDIMNDLSNIVWSI | 2
REQADSCREQLDIMNDLSNSVWSI | 2.41
REQADSCREQLDIMNDLSNFVWSI | 2.12
REQADSCREQLDIMNDLSNKVWSI | 2.78
